From patent publication US20240301385, “DNA MODIFYING ENZYMES AND ACTIVE FRAGMENTS AND VARIANTS THEREOF AND METHODS OF USE” (LIFEEDIT THERAPEUTICS, INC., published 2024)

T1: APG30127-L32-nAPG07433.1 (synthetic)
T1 chain: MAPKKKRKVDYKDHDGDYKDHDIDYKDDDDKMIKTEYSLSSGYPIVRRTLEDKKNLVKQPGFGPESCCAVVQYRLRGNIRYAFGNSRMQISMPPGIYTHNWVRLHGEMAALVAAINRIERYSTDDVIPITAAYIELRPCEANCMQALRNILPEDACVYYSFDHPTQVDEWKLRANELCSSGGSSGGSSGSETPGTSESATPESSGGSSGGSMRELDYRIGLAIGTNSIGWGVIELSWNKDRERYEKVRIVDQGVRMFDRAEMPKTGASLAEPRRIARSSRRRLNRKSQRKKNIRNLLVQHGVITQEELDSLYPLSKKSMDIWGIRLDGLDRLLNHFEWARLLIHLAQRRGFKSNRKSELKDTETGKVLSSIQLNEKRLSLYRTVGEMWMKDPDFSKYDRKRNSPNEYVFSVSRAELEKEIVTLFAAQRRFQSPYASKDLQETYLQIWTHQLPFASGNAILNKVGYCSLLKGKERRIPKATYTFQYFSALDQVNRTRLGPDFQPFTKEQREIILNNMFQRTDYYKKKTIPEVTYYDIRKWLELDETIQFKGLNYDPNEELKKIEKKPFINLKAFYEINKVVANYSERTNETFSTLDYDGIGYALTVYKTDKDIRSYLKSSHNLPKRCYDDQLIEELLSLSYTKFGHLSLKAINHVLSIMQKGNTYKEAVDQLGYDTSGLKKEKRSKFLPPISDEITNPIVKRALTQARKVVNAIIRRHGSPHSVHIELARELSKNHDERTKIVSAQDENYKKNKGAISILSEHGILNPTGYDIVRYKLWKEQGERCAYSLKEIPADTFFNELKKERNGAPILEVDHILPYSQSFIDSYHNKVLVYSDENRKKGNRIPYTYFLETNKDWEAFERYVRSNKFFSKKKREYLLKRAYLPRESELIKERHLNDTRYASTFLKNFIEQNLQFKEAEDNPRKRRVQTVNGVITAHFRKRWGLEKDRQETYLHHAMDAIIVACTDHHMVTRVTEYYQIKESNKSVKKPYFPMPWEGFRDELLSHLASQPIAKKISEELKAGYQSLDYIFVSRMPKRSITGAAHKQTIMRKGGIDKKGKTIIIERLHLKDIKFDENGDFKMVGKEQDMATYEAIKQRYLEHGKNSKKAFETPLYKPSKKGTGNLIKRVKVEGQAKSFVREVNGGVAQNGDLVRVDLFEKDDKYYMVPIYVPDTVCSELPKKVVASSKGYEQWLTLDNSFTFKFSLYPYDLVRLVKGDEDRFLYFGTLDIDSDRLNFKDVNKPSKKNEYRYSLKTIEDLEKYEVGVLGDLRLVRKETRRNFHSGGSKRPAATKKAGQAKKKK

T2: APG30128-L32-nAPG07433.1 (synthetic)
T2 chain: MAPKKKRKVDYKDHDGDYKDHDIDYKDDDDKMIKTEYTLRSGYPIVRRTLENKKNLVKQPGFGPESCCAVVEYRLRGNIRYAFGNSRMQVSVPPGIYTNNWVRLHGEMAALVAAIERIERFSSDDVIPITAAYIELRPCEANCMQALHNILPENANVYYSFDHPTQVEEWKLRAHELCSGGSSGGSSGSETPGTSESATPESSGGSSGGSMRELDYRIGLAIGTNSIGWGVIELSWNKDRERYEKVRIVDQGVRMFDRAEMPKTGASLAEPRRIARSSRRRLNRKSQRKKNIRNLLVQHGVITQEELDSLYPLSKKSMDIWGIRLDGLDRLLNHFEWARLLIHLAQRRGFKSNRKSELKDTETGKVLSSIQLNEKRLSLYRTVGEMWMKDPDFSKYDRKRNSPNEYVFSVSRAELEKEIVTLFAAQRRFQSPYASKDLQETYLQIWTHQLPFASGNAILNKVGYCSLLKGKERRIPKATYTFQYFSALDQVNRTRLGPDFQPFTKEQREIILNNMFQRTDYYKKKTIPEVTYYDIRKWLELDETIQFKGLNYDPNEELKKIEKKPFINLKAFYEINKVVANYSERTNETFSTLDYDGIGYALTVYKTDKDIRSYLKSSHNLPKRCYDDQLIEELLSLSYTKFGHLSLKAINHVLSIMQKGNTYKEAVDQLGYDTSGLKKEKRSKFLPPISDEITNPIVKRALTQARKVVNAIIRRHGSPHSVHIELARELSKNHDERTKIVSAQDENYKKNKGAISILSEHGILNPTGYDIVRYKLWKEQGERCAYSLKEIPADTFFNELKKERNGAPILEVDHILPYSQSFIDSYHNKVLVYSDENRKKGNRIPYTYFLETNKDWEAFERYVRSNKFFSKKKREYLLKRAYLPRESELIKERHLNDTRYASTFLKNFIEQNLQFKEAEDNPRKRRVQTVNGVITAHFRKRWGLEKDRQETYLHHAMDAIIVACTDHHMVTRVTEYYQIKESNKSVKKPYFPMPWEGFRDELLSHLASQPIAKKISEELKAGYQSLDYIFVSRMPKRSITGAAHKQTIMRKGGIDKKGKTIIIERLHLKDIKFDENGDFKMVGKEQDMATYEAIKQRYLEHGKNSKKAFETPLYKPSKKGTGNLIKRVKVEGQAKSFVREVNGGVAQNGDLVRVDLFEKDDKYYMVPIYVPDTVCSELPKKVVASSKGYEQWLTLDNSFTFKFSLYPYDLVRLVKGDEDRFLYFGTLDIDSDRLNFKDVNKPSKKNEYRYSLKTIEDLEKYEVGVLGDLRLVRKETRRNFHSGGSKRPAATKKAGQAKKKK

B1: SGN000194 sgRNA ; SGN000194 target (ssRNA ; dsDNA)
RNA: GCCGCACAGCAUUCAGGUCGGUCAUAGUUCCAUUAAAGCCAAAAGUGGCUUUGAUGUUUCUAUGAUAAGGGUUUCGACCCGUGGCGUCGGGGAUCGCCUGCCCAUUGAAAUGGGCUUCUCCCCAUUUAUU
DNA 1: GCCGCACAGCATTCAGGTCG
DNA 2: CGACCTGAATGCTGTGCGGC
B2: SGN000930 sgRNA ; SGN000930 target (ssRNA ; dsDNA)
RNA: GAACAACUCAAAUGGAAAUGAAUAUGUCAUAGUUCCAUGAAAGCCAAAAGUGGCUUUGAUGUUUCUAUGAUAAGGGUUUCGGCCCGUGGCGUCGGGGAUCGCCUGCCCAUUCCGAUGGGCUUCUCCCCAUUUAUU
DNA 1: GAACAACTCAAATGGAAATGAATAT
DNA 2: ATATTCATTTCCATTTGAGTTGTTC

Legend:
[1] = target: T1, APG30127-L32-nAPG07433.1; test: cell_activity; HEK293FT; PAM SEQ 152; conditions: tags: SV40 NLS, 3xFLAG N-term; nucleoplasmin NLS C-term
In short: (§1)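 Editing read out by next-generation sequencing (MiSeq 2×250) of PCR amplicons spanning the target site, analysed for INDELs or % cytosine conversion per position (position 1 nearest PAM).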

[2] = target: T2, APG30128-L32-nAPG07433.1; test: cell_activity; HEK293FT; PAM SEQ 152; conditions: tags: SV40 NLS, 3xFLAG N-term; nucleoplasmin NLS C-term
In short: as §1

| Binder | activity [1] [% mutated reads] | activity [2] [% mutated reads] |
| --- | --- | --- |
| B1 | 9.53 |  |
| B2 |  | 2.03 |
